For the experiment, the target named is CA521^FALA (human IgG4 monoclonal antibody with the F234A/L235A mutation) (human (from human antibody transgenic mice)). The experiment in a line: BLI. A general note: In BLI a coated tip is dipped into the sample, and binding shifts an interference pattern.
CA521^FALA (human IgG4 monoclonal antibody with the F234A/L235A mutation) (human (from human antibody transgenic mice)), sequence (heavy, as listed by the source, chain 1 of 2): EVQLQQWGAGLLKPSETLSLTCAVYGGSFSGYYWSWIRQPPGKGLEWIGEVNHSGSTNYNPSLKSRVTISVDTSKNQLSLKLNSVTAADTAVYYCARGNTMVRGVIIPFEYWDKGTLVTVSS
CA521^FALA (human IgG4 monoclonal antibody with the F234A/L235A mutation) (human (from human antibody transgenic mice)), sequence (light, as listed by the source, chain 2 of 2): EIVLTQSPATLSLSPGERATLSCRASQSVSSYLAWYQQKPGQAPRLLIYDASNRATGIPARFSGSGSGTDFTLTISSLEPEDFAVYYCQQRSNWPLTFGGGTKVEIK

Usually Kd stands for the constant that tells how readily two partners part at equilibrium. Substance “SARS-CoV-2 RBD protein (40592-V05H, Sino Biological) (from UniProt P0DTC2) (domain or fragment)” yielded a Kd of 0.698 nM.

Source of the values: PMC8065039.
